According to patent US12679878B2, “CRF2 receptor agonists and their use in therapy” (SANOFI, priority 2020, dated 2026):
One block for each binder: values may come before it. Starred links: 1 amine or outer side, 2 acyl side, 3 side chain; linkers in the order of their positions; H or OH if unused. Non-standard residues stand in square brackets, D forms with d. Groups on a side chain read outwards from the residue. No end group written: not given here. *: point of attachment. γGlu = O=C(O)[C@H](CCC(=O)[*:2])N[*:1]; Palmitoyl = CCCCCCCCCCCCCCCC(=O)*; AEEA = NCCOCCOCC(=O)O; Aib = CC(C)(N)C(=O)O

Molecular target: human corticotropin-releasing factor 2α (CRF2α receptor) (human), Q13324
Sequence (Q13324 20-411): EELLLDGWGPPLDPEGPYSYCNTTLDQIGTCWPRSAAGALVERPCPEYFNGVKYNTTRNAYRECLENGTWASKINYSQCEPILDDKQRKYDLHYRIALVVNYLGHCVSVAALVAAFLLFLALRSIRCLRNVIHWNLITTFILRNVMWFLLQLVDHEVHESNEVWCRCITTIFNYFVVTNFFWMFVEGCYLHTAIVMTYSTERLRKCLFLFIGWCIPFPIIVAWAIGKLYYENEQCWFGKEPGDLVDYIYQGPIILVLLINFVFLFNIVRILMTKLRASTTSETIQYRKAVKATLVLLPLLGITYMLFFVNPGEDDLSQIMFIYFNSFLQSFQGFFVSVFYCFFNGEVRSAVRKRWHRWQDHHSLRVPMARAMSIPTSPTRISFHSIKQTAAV
Experiment: cell-based or functional assay

EC50 [nM], 0% HSA (cAMP, HTRF): 2.98 nM
B1: peptide of SEQ ID NO: 210 (peptide)
peptide: IVLSLD[dV]PIKLK([AEEA-AEEA-γGlu-Palmitoyl])QILLKQERQKK[Aib]RQKAEKNKQILAQV-NH2
modifications: N-terminus assumed
SMILES: CCCCCCCCCCCCCCCC(=O)N[C@@H](CCC(=O)NCCOCCOCC(=O)NCCOCCOCC(=O)NCCCC[C@H](NC(=O)[C@H](CC(C)C)NC(=O)[C@H](CCCCN)NC(=O)[C@@H](NC(=O)[C@@H]1CCCN1C(=O)[C@H](NC(=O)[C@H](CC(=O)O)NC(=O)[C@H](CC(C)C)NC(=O)[C@H](CO)NC(=O)[C@H](CC(C)C)NC(=O)[C@@H](NC(=O)[C@@H](N)[C@@H](C)CC)C(C)C)C(C)C)[C@@H](C)CC)C(=O)N[C@@H](CCC(N)=O)C(=O)N[C@H](C(=O)N[C@@H](CC(C)C)C(=O)N[C@@H](CC(C)C)C(=O)N[C@@H](CCCCN)C(=O)N[C@@H](CCC(N)=O)C(=O)N[C@@H](CCC(=O)O)C(=O)N[C@@H](CCCNC(=N)N)C(=O)N[C@@H](CCC(N)=O)C(=O)N[C@@H](CCCCN)C(=O)N[C@@H](CCCCN)C(=O)NC(C)(C)C(=O)N[C@@H](CCCNC(=N)N)C(=O)N[C@@H](CCC(N)=O)C(=O)N[C@@H](CCCCN)C(=O)N[C@@H](C)C(=O)N[C@@H](CCC(=O)O)C(=O)N[C@@H](CCCCN)C(=O)N[C@@H](CC(N)=O)C(=O)N[C@@H](CCCCN)C(=O)N[C@@H](CCC(N)=O)C(=O)N[C@H](C(=O)N[C@@H](CC(C)C)C(=O)N[C@@H](C)C(=O)N[C@@H](CCC(N)=O)C(=O)N[C@H](C(N)=O)C(C)C)[C@@H](C)CC)[C@@H](C)CC)C(=O)O

EC50 [nM], 0% HSA (cAMP, HTRF): 0.09 nM
B2: peptide of SEQ ID NO: 206 (peptide)
peptide: IVLSLD[dV]PIKLK([AEEA-AEEA-γGlu-γGlu-Palmitoyl])QILLKQERQK[Aib]QREQAEKNKQILAQV-NH2
modifications: N-terminus assumed
SMILES: CCCCCCCCCCCCCCCC(=O)N[C@@H](CCC(=O)N[C@@H](CCC(=O)NCCOCCOCC(=O)NCCOCCOCC(=O)NCCCC[C@H](NC(=O)[C@H](CC(C)C)NC(=O)[C@H](CCCCN)NC(=O)[C@@H](NC(=O)[C@@H]1CCCN1C(=O)[C@H](NC(=O)[C@H](CC(=O)O)NC(=O)[C@H](CC(C)C)NC(=O)[C@H](CO)NC(=O)[C@H](CC(C)C)NC(=O)[C@@H](NC(=O)[C@@H](N)[C@@H](C)CC)C(C)C)C(C)C)[C@@H](C)CC)C(=O)N[C@@H](CCC(N)=O)C(=O)N[C@H](C(=O)N[C@@H](CC(C)C)C(=O)N[C@@H](CC(C)C)C(=O)N[C@@H](CCCCN)C(=O)N[C@@H](CCC(N)=O)C(=O)N[C@@H](CCC(=O)O)C(=O)N[C@@H](CCCNC(=N)N)C(=O)N[C@@H](CCC(N)=O)C(=O)N[C@@H](CCCCN)C(=O)NC(C)(C)C(=O)N[C@@H](CCC(N)=O)C(=O)N[C@@H](CCCNC(=N)N)C(=O)N[C@@H](CCC(=O)O)C(=O)N[C@@H](CCC(N)=O)C(=O)N[C@@H](C)C(=O)N[C@@H](CCC(=O)O)C(=O)N[C@@H](CCCCN)C(=O)N[C@@H](CC(N)=O)C(=O)N[C@@H](CCCCN)C(=O)N[C@@H](CCC(N)=O)C(=O)N[C@H](C(=O)N[C@@H](CC(C)C)C(=O)N[C@@H](C)C(=O)N[C@@H](CCC(N)=O)C(=O)N[C@H](C(N)=O)C(C)C)[C@@H](C)CC)[C@@H](C)CC)C(=O)O)C(=O)O
